Inhibition of Hewl (EnzChek assay, initial rate period) compared with wild-type Nm-ACPI (% reduced activity), protection of M. lysodeikticus cells (1 mg/ml) against lysis by HL (2 μg/ml), OD 595 nm over 2 h and and Kd data for three molecules are collected here from PMC5507604, “Structure of the Neisseria Adhesin Complex Protein (ACP) and its role as a novel lysozyme inhibitor” (PLoS Pathogens, 2017).

For assay [1], the target named is hen egg-white lysozyme (Hewl) (hen (chicken)) (UniProt P00698).
Assay [2] has as its target human lysozyme (HL) (human) (UniProt P61626).
Assay [3] deals with T1, human lysozyme (HL) (human, UniProt P61626 19-148, NT-647-NHS fluorescent dye (in the MST experiment only)).
T1 construct: human C-type lysozyme; MST used labelled recombinant HL; also called rHL; recombinant HL; source: bought: Sigma-Aldrich (recombinant HL, MST)
T1 sequence (looked up): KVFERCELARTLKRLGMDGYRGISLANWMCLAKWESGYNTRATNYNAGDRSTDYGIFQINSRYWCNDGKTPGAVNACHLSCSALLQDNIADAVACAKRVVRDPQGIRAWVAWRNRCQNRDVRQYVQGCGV
The assay can be described thus: MST; NT-647-labelled rHL (8.3 nM) constant, 16 two-fold serial dilutions of 2.5 mM rNm-ACPI mixed 1:1; 50 mM Tris pH 7.4, 150 mM NaCl, 10 mM MgCl2, 0.05% (v/v) Tween-20; 20% and 40% MST power, LED 20%; triplicate. The following applies: both partners purified.

Sequence of hen egg-white lysozyme (Hewl) (hen (chicken)) (P00698 19-147): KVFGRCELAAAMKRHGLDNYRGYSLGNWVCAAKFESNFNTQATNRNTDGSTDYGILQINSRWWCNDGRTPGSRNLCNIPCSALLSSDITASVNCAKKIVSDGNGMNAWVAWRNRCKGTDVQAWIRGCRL

Molecule “Nm-ACPI triple mutant Asn79Ala/Tyr84Ala/Gly95Ala (natural protein)” yielded an inhibition of Hewl (EnzChek assay, initial rate period) compared with wild-type Nm-ACPI (% reduced activity) in assay [1] of 39.

The molecule “recombinant Neisseria gonorrhoeae Adhesin Complex Protein (rNg-ACP) (natural protein)” came in with a protection of M. lysodeikticus cells (1 mg/ml) against lysis by HL (2 μg/ml), OD 595 nm over 2 h and at 24 h, rNg-ACP 0-0.5 μg/ml; ~30–60% protection at 0.1 μg/ml, not protective below 0.1 μg/ml in assay [2] of 80 to 100 % protection.

B1: recombinant Neisseria meningitidis Adhesin Complex Protein Type I (rNm-ACPI) (natural protein)
chain: AGTDNPTVAKKTVSYVCQQGKKVKVTYGFNKQGLTTYASAVINGKRVQMPVNLDKSDNVETFYGKEGGYVLGTGVMDGKSYRKQPIMITAPDNQIVFKDCSPR
notes: Adhesin Complex Protein (ACP) Type I, encoded by Allele 1, N. meningitidis serogroup B strain MC58 (NMB2095/NEIS2075); mature polypeptide of 103 residues (amino acids 22-124), mass 12,306 Da with the tag; disulphide bond Cys38-Cys121; Cloned between NdeI and XhoI of pET22b(+); The same construct, 15N-labelled, was used for NMR; also called NMB2095; NEIS2075; source: E. coli BL21 (DE3) pLysS, …
For orientation: Kd means a measure of binding affinity in units of concentration. Molecule B1 returned a Kd in assay [3] of 11 µM.
